Measurements reported in paper PMC7437355.

Legend:
[1] = biological target: T1, SPRED1(EVH1), SPRED1(13–125), wild type (ITC), Q7Z699; assay: ITC; settings: chain shown with the change
T1 chain: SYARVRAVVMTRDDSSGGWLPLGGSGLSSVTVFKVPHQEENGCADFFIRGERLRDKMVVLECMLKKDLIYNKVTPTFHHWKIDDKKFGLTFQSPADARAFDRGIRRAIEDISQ

[2] = biological target: T2, NF1(GRD), neurofibromin GAP-related domain, wild type (ITC), P21359-2; assay: ITC; settings: chain shown with the change
T2 chain: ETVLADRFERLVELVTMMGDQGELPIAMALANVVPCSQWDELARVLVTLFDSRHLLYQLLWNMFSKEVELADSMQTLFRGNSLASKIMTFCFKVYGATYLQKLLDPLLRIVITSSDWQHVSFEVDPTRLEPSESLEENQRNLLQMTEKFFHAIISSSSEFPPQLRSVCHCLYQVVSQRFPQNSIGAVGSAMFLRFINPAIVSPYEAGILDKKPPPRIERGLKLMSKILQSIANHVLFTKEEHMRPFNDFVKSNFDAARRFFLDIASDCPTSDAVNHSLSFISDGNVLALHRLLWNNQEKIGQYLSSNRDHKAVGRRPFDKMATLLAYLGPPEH

[3] = biological target: NF1(GRD), neurofibromin GAP-related domain, wild type (ITC) (human) (UniProt P21359); assay: ITC; MicroCal PEAQ-ITC, 25°C, 19 injections of 2.2 μL; 20 mM HEPES (pH 7.3), 150 mM NaCl, 5 mM MgCl2, 1 mM TCEP; one set of sites model; protein in the cell not given
NF1(GRD) D1217A (human) = NF1(GRD) D1217A (human) (UniProt P21359); assay: as above
NF1(GRD) R1250A (human) = NF1(GRD) R1250A (human) (UniProt P21359); assay: as above

B1: NF1(GRD), neurofibromin GAP-related domain, wild type (ITC), P21359-2 D1217A (protein)
chain: ETVLADRFERLVELVTMMGAQGELPIAMALANVVPCSQWDELARVLVTLFDSRHLLYQLLWNMFSKEVELADSMQTLFRGNSLASKIMTFCFKVYGATYLQKLLDPLLRIVITSSDWQHVSFEVDPTRLEPSESLEENQRNLLQMTEKFFHAIISSSSEFPPQLRSVCHCLYQVVSQRFPQNSIGAVGSAMFLRFINPAIVSPYEAGILDKKPPPRIERGLKLMSKILQSIANHVLFTKEEHMRPFNDFVKSNFDAARRFFLDIASDCPTSDAVNHSLSFISDGNVLALHRLLWNNQEKIGQYLSSNRDHKAVGRRPFDKMATLLAYLGPPEH
[1]
  Kd: 14 µM

B2: NF1(GRD), neurofibromin GAP-related domain, wild type (ITC), P21359-2 R1250A (protein)
chain: ETVLADRFERLVELVTMMGDQGELPIAMALANVVPCSQWDELARVLVTLFDSAHLLYQLLWNMFSKEVELADSMQTLFRGNSLASKIMTFCFKVYGATYLQKLLDPLLRIVITSSDWQHVSFEVDPTRLEPSESLEENQRNLLQMTEKFFHAIISSSSEFPPQLRSVCHCLYQVVSQRFPQNSIGAVGSAMFLRFINPAIVSPYEAGILDKKPPPRIERGLKLMSKILQSIANHVLFTKEEHMRPFNDFVKSNFDAARRFFLDIASDCPTSDAVNHSLSFISDGNVLALHRLLWNNQEKIGQYLSSNRDHKAVGRRPFDKMATLLAYLGPPEH
[1]
  Kd: 1.08 µM

B3: SPRED1(EVH1), SPRED1(13–125), wild type (ITC), Q7Z699 R24Q (protein)
chain: SYARVRAVVMTQDDSSGGWLPLGGSGLSSVTVFKVPHQEENGCADFFIRGERLRDKMVVLECMLKKDLIYNKVTPTFHHWKIDDKKFGLTFQSPADARAFDRGIRRAIEDISQ
[2]
  Kd: 4 µM

B4: SPRED1(13–125) R24Q (domain or fragment)
chain: SYARVRAVVMTQDDSSGGWLPLGGSGLSSVTVFKVPHQEENGCADFFIRGERLRDKMVVLECMLKKDLIYNKVTPTFHHWKIDDKKFGLTFQSPADARAFDRGIRRAIEDISQ
[3]
  fold weaker binding than wild-type SPRED1: 20 fold

B5: SPRED1(EVH1), SPRED1(13–125), wild type (ITC), Q7Z699 G30R (protein)
chain: SYARVRAVVMTRDDSSGRWLPLGGSGLSSVTVFKVPHQEENGCADFFIRGERLRDKMVVLECMLKKDLIYNKVTPTFHHWKIDDKKFGLTFQSPADARAFDRGIRRAIEDISQ
[2]
  Kd: 33.7 µM

B6: SPRED1(13–125) G30R (domain or fragment)
chain: SYARVRAVVMTRDDSSGRWLPLGGSGLSSVTVFKVPHQEENGCADFFIRGERLRDKMVVLECMLKKDLIYNKVTPTFHHWKIDDKKFGLTFQSPADARAFDRGIRRAIEDISQ
[3]
  fold weaker binding than wild-type SPRED1 (printed as decrease in KD): > 100 fold

B7: SPRED1(EVH1), SPRED1(13–125), wild type (ITC) (domain or fragment)
chain: SYARVRAVVMTRDDSSGGWLPLGGSGLSSVTVFKVPHQEENGCADFFIRGERLRDKMVVLECMLKKDLIYNKVTPTFHHWKIDDKKFGLTFQSPADARAFDRGIRRAIEDISQ
NF1(GRD) D1217A (human)
  fold weaker affinity than wild-type NF1(GRD): > 50 fold
NF1(GRD) R1250A (human)
  fold reduced binding against wild-type NF1(GRD): 5 fold
[3]
  Kd: 0.224 µM

B8: SPRED1(13–125) S105D, purified phosphomimetic (domain or fragment)
chain: SYARVRAVVMTRDDSSGGWLPLGGSGLSSVTVFKVPHQEENGCADFFIRGERLRDKMVVLECMLKKDLIYNKVTPTFHHWKIDDKKFGLTFQDPADARAFDRGIRRAIEDISQ
[3]
  fold weaker affinity than wild-type SPRED1: 10 fold
